B1: AF2 (XNA)
strand: AAAAAAAAAAAA
modifications: 2'-F-A in middle part; positions in Figure 2/Table 1
B2: m6A2 (ssRNA)
RNA: AAAAAAAAAAAA
modifications: N6-methyl-A in middle part; positions in Figure 2/Table 1
B3: Am2 (XNA)
strand: AAAAAAAAAAAA
modifications: 2'-O-methyl-A in middle part; positions in Figure 2/Table 1

Chain of PABP1-190 (RRM1/2) (P11940 1-190): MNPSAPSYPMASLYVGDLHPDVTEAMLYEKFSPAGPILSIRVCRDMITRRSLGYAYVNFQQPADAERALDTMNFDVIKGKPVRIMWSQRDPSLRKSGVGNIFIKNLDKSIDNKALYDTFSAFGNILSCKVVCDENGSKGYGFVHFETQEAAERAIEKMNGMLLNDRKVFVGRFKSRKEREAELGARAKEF

This data set has as its target PABP1-190 (RRM1/2) (human, UniProt P11940 1-190). Briefly: MST competition.
For B1, the binding signal was ~4 fold higher Kd app than A12.

B2: the binding signal is ~12 fold higher Kd app than A12. With B3 the figure was ~7 fold higher Kd app than A12.
